Results published in article PMC6953907.

Legend:
[1] = molecular target: T1, DDX17 Core WT (human, UniProt Q92841-1 32-477); experiment: X-ray crystallography
[2] = molecular target: T1, DDX17 Core WT; experiment: EMSA
[3] = molecular target: T1, DDX17 Core WT; experiment: X-ray crystallography; remark: listed apart in the source

T1 sequence (Q92841 111-556): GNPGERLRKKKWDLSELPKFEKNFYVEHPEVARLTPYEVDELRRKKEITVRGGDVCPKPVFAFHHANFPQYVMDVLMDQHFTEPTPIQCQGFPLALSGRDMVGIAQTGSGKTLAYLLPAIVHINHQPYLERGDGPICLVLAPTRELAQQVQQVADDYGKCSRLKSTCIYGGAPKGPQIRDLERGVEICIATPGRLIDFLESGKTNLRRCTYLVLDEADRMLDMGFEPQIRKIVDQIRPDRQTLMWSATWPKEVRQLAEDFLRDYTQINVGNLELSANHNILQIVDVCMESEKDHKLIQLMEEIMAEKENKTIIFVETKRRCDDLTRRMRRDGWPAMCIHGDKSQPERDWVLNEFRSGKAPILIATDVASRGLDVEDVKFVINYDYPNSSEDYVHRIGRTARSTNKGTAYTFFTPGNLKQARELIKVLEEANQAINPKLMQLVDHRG

B1: 125a-oligo1 (ssRNA)
RNA: CACACACCUG
binding result [1]: binds

B2: rA10 (ssRNA)
RNA: AAAAAAAAAA
binding result [2]: no binding

B3: 18a-oligo1 (ssRNA)
RNA: AUUCAUCCAA
binding result [1]: binds

B4: rU10 (ssRNA)
RNA: UUUUUUUUUU
binding result [3]: binds

B5: 125a-oligo2 (ssRNA)
RNA: ACACACCUGG
binding result [1]: binds
